Experimental data as given in US20030166587.
Changes are numbered by the printed parent chain.

Target: T1, IKK-phosphorylated IκBα in the IκBα/NF-κB complex
T1 chain: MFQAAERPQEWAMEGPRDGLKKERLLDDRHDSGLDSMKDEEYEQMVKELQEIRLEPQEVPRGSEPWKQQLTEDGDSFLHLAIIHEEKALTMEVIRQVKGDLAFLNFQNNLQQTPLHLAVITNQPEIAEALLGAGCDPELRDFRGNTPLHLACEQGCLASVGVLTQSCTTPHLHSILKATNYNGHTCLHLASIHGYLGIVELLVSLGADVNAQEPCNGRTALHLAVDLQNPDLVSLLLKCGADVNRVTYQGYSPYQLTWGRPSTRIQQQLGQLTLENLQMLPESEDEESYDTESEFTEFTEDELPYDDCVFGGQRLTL

B1: human β-TrCP, FLAG-tagged (protein)
chain: MDPAEAVLQEKALKFMNSSEREDCNNGEPPRKIIPEKNSLRQTYNSCARLCLNQETVCLASTAMKTENCVAKTKLANGTSSMIVPKQRKLSASYEKEKELCVKYFEQWSESDQVEFVEHLISQMCHYQHGHINSYLKPMLQRDFITALPARGLDHIAENILSYLDAKSLCAAELVCKEWYRVTSDGMLWKKLIERMVRTDSLWRGLAERRGWGQYLFKNKPPDGNAPPNSFYRALYPKIIQDIETIESNWRCGRHSLQRIHCRSETSKGVYCLQYDDQKIVSGLRDNTIKIWDKNTLECKRILTGHTGSVLCLQYDERVIITGSSDSTVRVWDVNTGEMLNTLIHHCEAVLHLRFNNGMMVTCSKDRSIAVWDMASPTDITLRRVLVGHRAAVNVVDFDDKYIVSASGDRTIKVWNTSTCEFVRTLNGHKRGIACLQYRDRLVVSGSSDNTIRLWDIECGACLRVLEGHEELVRCIRFDNKRIVSGAYDGKIKVWDLVAALDPRAPAGTLCLRTLVEHSGRVFRLQFDEFQIVSSSHDDTILIWDFLNDPAAQAEPPRSPSRTYTYISR
in vitro ubiquitination of pIκBα in the presence of E1 and E2 (UBC5C): the wild type β-TrCP proteins facilitated the ubiquitination of pIκBα, but not of the non-phosphorylated IκBα

B2: mouse β-TrCP, FLAG-tagged (protein)
chain: B1 chain with L52I, A60T, T73A, G224E, N295S, T336A, V498M, Q553H
in vitro ubiquitination of pIκBα in the presence of E1 and E2 (UBC5C): the wild type β-TrCP proteins facilitated the ubiquitination of pIκBα, but not of the non-phosphorylated IκBα

B3: human β-TrCP with a deletion of the F box region residues 122-168, FLAG-tagged (protein)
chain: MDPAEAVLQEKALKFMNSSEREDCNNGEPPRKIIPEKNSLRQTYNSCARLCLNQETVCLASTAMKTENCVAKTKLANGTSSMIVPKQRKLSASYEKEKELCVKYFEQWSESDQVEFVEHLISQMCHYQHGHINSYLKPMLQRDFITERMVRTDSLWRGLAERRGWGQYLFKNKPPDGNAPPNSFYRALYPKIIQDIETIESNWRCGRHSLQRIHCRSETSKGVYCLQYDDQKIVSGLRDNTIKIWDKNTLECKRILTGHTGSVLCLQYDERVIITGSSDSTVRVWDVNTGEMLNTLIHHCEAVLHLRFNNGMMVTCSKDRSIAVWDMASPTDITLRRVLVGHRAAVNVVDFDDKYIVSASGDRTIKVWNTSTCEFVRTLNGHKRGIACLQYRDRLVVSGSSDNTIRLWDIECGACLRVLEGHEELVRCIRFDNKRIVSGAYDGKIKVWDLVAALDPRAPAGTLCLRTLVEHSGRVFRLQFDEFQIVSSSHDDTILIWDFLNDPAAQAEPPRSPSRTYTYISR
in vitro ubiquitination of pIκBα in the presence of E1 and E2 (UBC5C): failed to promote ubiquitination (lanes 7 and 8), in spite of its binding capacity
